Assay results as given in patent US20110207152A1.

Experiments:
[1] = target: native human plasma gelsolin (human) (UniProt P06396); experiment: sandwich ELISA on human plasma; detection antibody GS2C4 (HRP), capture antibody GF2D6
[2] = target: native human plasma gelsolin (human) (UniProt P06396); experiment: sandwich ELISA on human plasma; detection antibody GS2C4 (HRP), capture antibody GN3E9
[3] = target: native human plasma gelsolin (human) (UniProt P06396); experiment: sandwich ELISA on human plasma; detection antibody GS2C4 (HRP), capture antibody GC1C10
[4] = target: F-actin prepared from rabbit muscle actin (rabbit) (UniProt P68135); experiment: cell-based or functional assay

Chain of native human plasma gelsolin (human) (P06396 28-782 limits assumed): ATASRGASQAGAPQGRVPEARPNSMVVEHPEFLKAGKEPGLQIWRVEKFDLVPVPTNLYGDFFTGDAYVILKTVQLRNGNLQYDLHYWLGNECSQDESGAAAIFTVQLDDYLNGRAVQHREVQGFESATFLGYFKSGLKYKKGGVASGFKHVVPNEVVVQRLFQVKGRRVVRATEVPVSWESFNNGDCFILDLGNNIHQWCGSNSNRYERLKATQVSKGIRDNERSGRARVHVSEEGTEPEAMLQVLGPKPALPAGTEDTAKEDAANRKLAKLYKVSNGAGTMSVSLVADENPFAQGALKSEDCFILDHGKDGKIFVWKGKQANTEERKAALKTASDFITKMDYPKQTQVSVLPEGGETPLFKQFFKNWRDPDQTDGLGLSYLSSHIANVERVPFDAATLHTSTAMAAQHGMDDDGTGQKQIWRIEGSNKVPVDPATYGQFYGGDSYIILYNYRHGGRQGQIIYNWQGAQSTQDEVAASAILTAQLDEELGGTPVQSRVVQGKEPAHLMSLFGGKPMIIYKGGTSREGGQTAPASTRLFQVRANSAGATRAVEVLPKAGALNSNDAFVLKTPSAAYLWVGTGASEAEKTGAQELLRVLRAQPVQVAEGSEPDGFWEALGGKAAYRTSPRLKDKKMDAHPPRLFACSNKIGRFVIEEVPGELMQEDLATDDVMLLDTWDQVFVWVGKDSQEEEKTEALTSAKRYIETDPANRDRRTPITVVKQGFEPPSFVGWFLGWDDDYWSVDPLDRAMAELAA
Chain of native human plasma gelsolin (P06396 28-782 limits assumed): as above

| Substance | OD (sandwich ELISA pairing) [1] [OD] | OD (sandwich ELISA pairing) [2] [OD] | OD (sandwich ELISA pairing) [3] [OD] | % of F-actin at 0.1 mg/ml gelsolin (F-actin severing assay) [4] [%] | % of F-actin at 0.5 mg/ml gelsolin (F-actin severing assay) [4] [%] | % of F-actin at 1.0 mg/ml gelsolin (F-actin severing assay) [4] [%] |
| --- | --- | --- | --- | --- | --- | --- |
| commercial anti-human gelsolin antibody GS2C4 (Sigma Chemical Co.) | 0.013 | 0.025 | 0.014 |  |  |  |
| native human plasma gelsolin (from UniProt P06396 28-782) |  |  |  | 35 | 21 | 12 |
